# Patent US6168954A, “Soybean glutathione-S-transferase enzymes” (E. I. du Pont de Nemours & Company, priority 1999, dated 2001)
# B1: se6.pk0037.h4: soybean type III GST encoded by cDNA insert in clone se6.pk0037.h4, expressed in E. coli (protein)
# chain: MAATQEDVTLLGVVGSPFVCRVQIALKLKGIECKFLEENLANKSDLLLKSNPVYKKVPVFIHNEKPIAESLVIVEYIDETWKNNPILPSDPYQRSFARFWSKFIDDKIVGASWKSVFTVDEKEREKNVEESLEALQFLENELQDKRFFGGDEFGFVDIAGVFIAFSIPIFQEVAGLQLFTSEKFPKLFKWSQELINHPVVKDVLPPREPLFAFFKSLYESLSASK
# B2: ses8w.pk0028.c6: soybean type III GST encoded by cDNA insert in clone ses8w.pk0028.c6 (protein)
# chain: MAANQEDVKLLGATGSPFVCRVQIALKLKGVQYKFLEENLRNKSELLLKSNPVHKKVPVFIHNEKPIAESLVIVEYIDETWKNNPILPSDPYQRALARFWSKFIDDKVVGAAWKYIYTVDEKEREKNVEESYEALQFLENELKDKKFFGGEEIGLVDIAAVFIAFWIPIIQEVLGLKLFTSEKFPKLYKWSQEFINHPVVKQVLPPRDQLFAFYKACHESLSASK
# B3: ssm.pk0067.g5: soybean type III GST encoded by cDNA insert in clone ssm.pk0067.g5 (protein)
# chain: MASYHEEEVRLLGKWASPFSNRVDLALKLKGVPYKYSEEDLANKSADLLKYNPVHKKVPVLVHNGNPLPESLIIVEYIDETWKNNPLLPQDPYERALARFWSKTLDDKILPAIWNACWSDENGREKAVEEALEALKILQETLKDKKFFGGESIGLVDIAANFIGYWVAILQEIAGLELLTIEKFPKLYNWSQDFINHPVIKEGLPPRDELFAFFKASAKK
# B4: ssl.pk0020.b10: soybean type III GST encoded by cDNA insert in clone ss1.pk0020.b10 (protein)
# chain: MAEQDKVILHGMWASPYAKRVELALNFKGIPYEYVEEDLRNKSDLLLKYNPVHKKVPVLVHNGKAIAESMVILEYIDETWKDGPKLLPSDSYKRAQARFWCHFIQDQLMESTFLVVKTDGEAQQKAIDHVYEKLKVLEDGMKTYLGEGNAIISGVENNFGILDIVFCALYGAYKAHEEVIGLKFIVPEKFPVLFSWLMAIAEVEAVKIATPPHEKTVGILQLFRLSALKSSSATE
# B5: GST-A: soybean type III GST encoded by cDNA insert in clone GSTa (protein)
# chain: MSDEVVLLDFWPSPFGMRVRIALAEKGIKYEYKEEDLRNKSPLLLQMNPVHKKIPVLIHNGKPICESLIAVQYIEEVWNDRNPLLPSDPYQRAQTRFWADYVDKKIYDLGRKIWTSKGEEKEAAKKEFIEALKLLEEQLGDKTYFGGDNLGFVDIALVPFYTWFKAYETFGTLNIEECPKFIAWAKRCLQKESVAKSLPDQQKVYEFIMDLRKKLGIE
# B6: ssl.pk0005.e6: soybean type III GST encoded by cDNA insert in clone ss1.pk0005.e6 (protein)
# chain: MTDEVVLLDFWPSPFGMRVRIALAEKGIEYEYKEEDLRNKSPLLLQMNPVHKKIPVLIHNGKPISESLIAVQYIEEVWNDRNPLLPSDPYQRAQARFWADYVDIKIHDLGKKIWTSKGEEKEAAKKEFIEALKLLEEQLGDKTYFGGDNIGFVDIALVPFYTWFKVYETFGSLNIENECPRFVAWAKRCLQKESVAKSLPDQHKVYEFVVEIRKKLVIE
# B7: se6.pk0048.d7: soybean type III GST encoded by cDNA insert in clone se6.pk0048.d7 (protein)
# chain: MADEVVLLDFWPSPFGMRVRIALAEKGIKYESKEEDLQNKSPLLLKMNPVHKKIPVLIHNGKPICESLVAVQYIEEVWNDRNPLLPSDPYQRAQARFWADFVDNKIFDLGRKIWTSKGEEKEAAKKEFIEALKLLEEQLGDKTYFGGDDLGFVDIALIPFDTWFKTFGSLNIESECPKFVAWAKRCLQKDSVAKSLPDQHKVYEFIMDIRKKFDIE
# B8: ssl.pk0002.f7: soybean type III GST encoded by cDNA insert in clone ss1.pk0002.f7 (protein)
# chain: MADGVVLLDTWASMFGMRVRIALAEKGVEYEYKEENLRNKSPLLLQMNPIHKKIPVLIHNGKPICESAIIVQYIDEVWNDKAPILPSDPYERAQARFWVDYIDKKVYDTWRKMWLSKGEEHEAGKKEFISIFKQLEETLSDKAYYGSDTFGFLDIGLIPFYSWFYTFETYGNFKMEEECPKLVAWAKRCMQREAVSKSLS
# B9: se3.03b09: soybean type III GST encoded by cDNA insert in clone se3.03b09 (protein)
# chain: MSKSEDLKLLGGWFSPFALRVQIALNLKGLEYEVVEETLNPKSDLLLKSNPVHKKIPVFFHGDKVICESAIIVEYIDEAWTNVPSILPQNAYDRANARFWFAYIDEKWFTSLRSVLVAEDDEAKKPHFEQAEEGLERLEEVFNKYSEGKAYFGGDSIGFIDIGFGSFLSWMRVIEEMSGRKLLDEKKHPGLTQWAETFAADPAVKGILPETDKLVEFAKILQLKWTAAAAAAAK
# Experiment: GST conjugation activity with CDNB (HPLC)
# Format: biochemical
# Details: 0.4 mM electrophilic substrate, 4 mM glutathione, 0.1 M MOPS pH 7.0, corrected for uncatalyzed reaction
# Excerpt: (§1) The GST enzymes, expressed and purified as described in Example 5 were screened for their ability to metabolize a variety of substrates. Substrates tested included the three herbicide electrophilic substrates chlorimuron ethyl, alachlor, and Atrazine, and four model electrophilic substrates, 1-chloro-2, 4-dinitro-benzene (CDNB), ethacrynic acid, t-stilbene oxide, and 1,2-epoxy-3-(p-nitro-phenoxy) propane. The enzymes were purified as described in Example 5 and used in the following assay.
# (§2) For each enzyme, the conjugation reaction with each electrophilic substrate was performed by incubating 0.3 to 30 μg enzyme in 0.1 M MOPS (pH 7.0) containing 0.4 mM of the electrophilic substrate. The reaction was inititated by the addition of glutathione to a final concentration of 4 mM. After 5 to 30 min, the reaction was terminated by the addition of 45 μL acetonitrile, microfuged for 10 min to remove precipitated protein, and then the supematent was removed and added to 65 μL of water. This sample was chromatographed on a Zorbax C8 reverse phase HPLC column (3 μm particle size, 6.2 mm×8 cm) using a combination of linear gradients (flow=1.5 mL/min) of 1% H3 PO4 in water (solvent A) and 1% H3 PO4 in acetonitile. The gradient started with 5% solvent B, progressing from 5% to 75% solvent B between 1 and 10 min, and from 75% to 95% solvent B between 10 and 12 min. Control reactions without enzyme were performed to correct for uncatalyzed reaction. Quantitation of metabolites were based on an assumption that the extinction coefficient of the conjugate was identical to that of the electrophilic substrate.
# (§3) Activities are related to the activity of a known and previously isolated and purified GST enzyme, GH2/4 (also called GST 26) (Czarnecka et al., Plant Molecular Biology 3:45-58 (1984); Ulmasoz et al., Plant Physiol 108:919-927 (1995)).
row,Molecule,"Activity of soybean GST enzyme, CDNB [nmol/min/mg]"
1,B1,2364
2,B2,515
3,B3,1394
4,B4,470
5,B5,1924
6,B6,2030
7,B7,1379
8,B8,2576
9,B9,14364

# Experiment: GST conjugation activity with Atrazine (HPLC)
# Format: biochemical
# Details: 0.4 mM electrophilic substrate, 4 mM glutathione, 0.1 M MOPS pH 7.0, corrected for uncatalyzed reaction
# Excerpt: as §1, §2, §3
row,Molecule,"Activity of soybean GST enzyme, Atrazine [nmol/min/mg]"
1,B1,0.19
2,B2,1.40
3,B3,0.03
4,B4,0.03
5,B5,0.03
6,B6,0.00
7,B7,0.76
8,B8,0.00

# Experiment: GST conjugation activity with chlorimuron ethyl (HPLC)
# Format: biochemical
# Details: 0.4 mM electrophilic substrate, 4 mM glutathione, 0.1 M MOPS pH 7.0, corrected for uncatalyzed reaction
# Excerpt: as §1, §2, §3
row,Molecule,"Activity of soybean GST enzyme, Chlorimuron Ethyl [nmol/min/mg]"
1,B1,0.1
2,B2,0.2
3,B3,0.1
4,B4,0.1
5,B5,0.5
6,B6,1.4
7,B7,0.5
8,B8,0.9
9,B9,4.4

# Experiment: GST conjugation activity with alachlor (HPLC)
# Format: biochemical
# Details: 0.4 mM electrophilic substrate, 4 mM glutathione, 0.1 M MOPS pH 7.0, corrected for uncatalyzed reaction
# Excerpt: as §1, §2, §3
row,Molecule,"Activity of soybean GST enzyme, Alachlor [nmol/min/mg]"
1,B1,1
2,B2,10
3,B3,4
4,B4,7
5,B5,71
6,B6,166
7,B7,8
8,B8,30
9,B9,168

# Experiment: GST conjugation activity with t-stilbene oxide (HPLC)
# Format: biochemical
# Details: 0.4 mM electrophilic substrate, 4 mM glutathione, 0.1 M MOPS pH 7.0, corrected for uncatalyzed reaction
# Excerpt: as §1, §2, §3
row,Molecule,"Activity of soybean GST enzyme, T-Stilbene Oxide [nmol/min/mg]"
1,B1,0.06
2,B2,4.04
3,B3,0.49
4,B4,0.02
5,B5,0.06
6,B6,0.06
7,B7,0.07
8,B8,0.16
9,B9,0.07

# Experiment: GST conjugation activity with 1,2-epoxy-3-(p-nitrophenoxy)propane (HPLC)
# Format: biochemical
# Details: 0.4 mM electrophilic substrate, 4 mM glutathione, 0.1 M MOPS pH 7.0, corrected for uncatalyzed reaction
# Excerpt: as §1, §2, §3
row,Molecule,"Activity of soybean GST enzyme, 1,2-epoxy-3-(p-nitrophenoxy)propane [nmol/min/mg]"
1,B1,1
2,B2,12
3,B3,19
4,B4,47
5,B5,22
6,B6,4
7,B7,9
8,B8,10
9,B9,20

# Experiment: GST conjugation activity with ethacrynic acid (HPLC)
# Format: biochemical
# Details: 0.4 mM electrophilic substrate, 4 mM glutathione, 0.1 M MOPS pH 7.0, corrected for uncatalyzed reaction
# Excerpt: as §1, §2, §3
row,Molecule,"Activity of soybean GST enzyme, Ethacrynic Acid [nmol/min/mg]"
1,B1,13
2,B2,17
3,B3,13
4,B4,14
5,B5,109
6,B6,11
7,B7,4
8,B8,68
9,B9,1
